T1: MglB-MglC complex (preformed) (M. xanthus, UniProt Q1DB03 1-159; Q1D0B6 1-120)
T1 construct: MglB of Myxococcus xanthus, Uniprot ID Q1DB03; as m7; MglC of Myxococcus xanthus, Uniprot ID Q1D0B6; as m1; also called MglBC; source: purified proteins from E. coli Rosetta (DE3), MglB and MglC premixed in a 2:1 ratio; copies: 4 + 2
T1 sequence (looked up) 1: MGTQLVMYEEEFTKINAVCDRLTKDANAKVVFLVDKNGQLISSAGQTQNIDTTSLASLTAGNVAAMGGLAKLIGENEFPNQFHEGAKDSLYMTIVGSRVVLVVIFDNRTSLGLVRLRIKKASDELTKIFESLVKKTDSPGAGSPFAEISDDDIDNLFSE
T1 sequence (looked up) 2: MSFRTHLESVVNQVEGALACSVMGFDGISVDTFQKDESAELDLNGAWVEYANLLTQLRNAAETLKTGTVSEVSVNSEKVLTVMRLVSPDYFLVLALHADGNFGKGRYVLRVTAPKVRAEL

B1: MglC (mutual gliding-motility protein C) (natural protein, M. xanthus, UniProt Q1D0B6 1-120, looked up)
chain: T1 sequence (looked up) 2
notes: MglC of Myxococcus xanthus (DSM no. 16526, type strain), Uniprot ID Q1D0B6; Homodimer by ASEC and SEC-SAXS; source: E. coli Rosetta (DE3), purified (Ni-NTA, SEC)
B2: RomR^371-420 (C-terminal helix of RomR, residues 371-420) (domain or fragment, M. xanthus, UniProt Q1D3Z1 371-420, looked up)
chain: DGGEALLREALSKASREVIEKIAWEVVPQLAETIIREELERLIKDRETQH
notes: synthetic gene from Invitrogen, cloned in pET-Duet-A with a TEV site; no tag cleavage is described; Trimer by SEC-SAXS; also called RomR C-terminal helix; helical domain of RomR; source: E. coli Rosetta (DE3), purified (Ni-NTA, SEC); not shown: His tag, N-terminal, kept

Tests used:
[1] = target: RomR^327-420 (C-terminal region of RomR, residues 327-420) (M. xanthus); test: ITC; MicroCal Auto-iTC200; 50 μM RomR^327-420/RomR^371-420 in the cell titrated with 500 μM MglC; 30 injections; one-site model; triplicate
[2] = target: B2; test: as above; settings: both partners purified
[3] = target: RomR^327-420 (C-terminal region of RomR, residues 327-420) (M. xanthus); test: BLI; Octet RED 96; RomR^327-420/RomR^371-420 immobilised on AR2G sensors by EDC/NHS; MglC in solution; 20 mM HEPES pH 8.0, 150 mM NaCl, 10% glycerol; 1:1 binding model
[4] = target: the molecule itself; test: SEC-SAXS; BM29, ESRF; Advance BioSEC 300 column; 20 mM Hepes pH 8.0, 150 mM NaCl, 10% glycerol; Mw from Porod volume, fits of models to the scattering data
[5] = target: T1, MglB-MglC complex (preformed); test: ITC; MglB and MglC premixed 2:1; 25 μM of the complex in the cell titrated with 300 μM RomR^371-420; one-site model; triplicate; settings: both partners purified
[6] = target: B1; test: ITC; MicroCal Auto-iTC200; 50 μM RomR^327-420/RomR^371-420 in the cell titrated with 500 μM MglC; 30 injections; one-site model; triplicate; settings: both partners purified
[7] = target: B1; test: BLI; Octet RED 96; RomR^327-420/RomR^371-420 immobilised on AR2G sensors by EDC/NHS; MglC in solution; 20 mM HEPES pH 8.0, 150 mM NaCl, 10% glycerol; 1:1 binding model; settings: both partners purified
[8] = target: T1, MglB-MglC complex (preformed); test: BLI; Octet RED 96; RomR^371-420 immobilised on AR2G sensors by EDC/NHS; MglB-MglC complex in solution; 20 mM HEPES pH 8.0, 150 mM NaCl, 10% glycerol; 2:1 (heterogeneous ligand) model and steady state analysis; settings: both partners purified

| Kd [1] [nM] | stoichiometry N [1] | dH [2] [kJ/mol] | stoichiometry N [2] | Kd [3] [nM] | koff [3] [s⁻¹] | kon [3] [M⁻¹ s⁻¹] | Kd [5] [nM] | dH [5] [kJ/mol] | Kd [6] [nM] | Kd [7] [nM] | koff [7] [s⁻¹] | kon [7] [M⁻¹ s⁻¹] | Kd [8] [nM] | Binder | stoichiometry N [4] |
| --- | --- | --- | --- | --- | --- | --- | --- | --- | --- | --- | --- | --- | --- | --- | --- |
| 4.2 | 0.67 | -10.8 | 0.65 | 5.5 | 0.000805 | 146000 | – | – | – | – | – | – | – | B1 | 2 |
| – | – | – | – | – | – | – | ~150 | -25.4 | 2.6 | 2.8 | 0.000652 | 228000 | 280 | B2 | 3 |

From PMC12719032, “Structural and biophysical insights into RomR, MglB, and MglC interactions involved in regulating cell polarity in Myxococcus xanthus” (The Journal of Biological Chemistry, 2025)
